The supplement of paper PMC7877785
± gives the uncertainty stated by the source.

Test: self-splicing fitness, log relative to wild type (ln ratio); higher = more splicing; Tetrahymena group I intron in knt gene, E. coli kanamycin selection, DiMSum; sequences stand for … in CUCUCU…GGAGGGAAAAGUUAUCAGGCAUGCACCUGGUAGCUAGUCUUUAAACCAAUAGAUUGCAUCGGUUUAAAAGGCAAGACCGUCAAAUUGCGGGAAAGGGGUCAACAGCCGUUCAGUACCAAGUCUCAGGGGAAACUUUGAGAUGGCCUUGCAAAGGGUAUGGUAAUAAGCUGACGGACAUGGUCCUAACCACGCAGCCAAGUCCUAAGUCAACAGAUCUUCUGUUGAUAUGGAUGCAGUUCACAGACUAAAUGUCGGUCGGGGAAGAUGUAUUCUUCUCAUAAGAUAUAGUCGGACCUCUCCUUAAUGGGAGCUAGCGGAUGAAGUGAUGCAACACUGGAGCCGCUGGGAACUAAUUUGUAUGCGAAAGUAUAUUGAUUAGUUUUGGAGUACUCGUGGUCG
How it was run: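 Pooled colonies went to amplicon sequencing on an Illumina HiSeq 2500 after six replicate transformations. The plates were LB agar with 100 μg/mL carbenicillin, 50 μM IPTG and 0.2% rhamnose, with or without 25 μg/mL kanamycin, incubated overnight at 37°C or 30°C. The E. coli BL21(DE3) library had all eight P1ex-region intron nucleotides randomised, the intron placed in the knt kanamycin-resistance gene on pET-22b(+). DiMSum fitness is the error-weighted combination of replicate fold changes, kanamycin against none, normalised to wild type.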

With AGCCAGCAAUAUUACGAACA the “self-splicing fitness (ln)” value (30 °C) was -2.8 ± 0.24 and the “self-splicing fitness (ln)” value (37 °C) was -1.98 ± 0.33.

For GCGCAGCAAUAUUACGUAUC, the “self-splicing fitness (ln)” value (30 °C) was -0.438 ± 0.068 and the “self-splicing fitness (ln)” value (37 °C) was -0.609 ± 0.085.

In the case of AAAUAGCAAUAUUACGUAUG, the “self-splicing fitness (ln)” value (30 °C) is reported as -2.64 ± 0.12 and the “self-splicing fitness (ln)” value (37 °C) is reported as -2.08 ± 0.13.

With ACAAAGCAAUAUUACGGCUU the “self-splicing fitness (ln)” value (30 °C) was -0.982 ± 0.084 and the “self-splicing fitness (ln)” value (37 °C) was -0.814 ± 0.12.

For ACUCAGCAAUAUUACGUCUG, the “self-splicing fitness (ln)” value (30 °C) was -3.57 ± 0.14 and the “self-splicing fitness (ln)” value (37 °C) was -2.74 ± 0.16.

In the case of GAUCAGCAAUAUUACGAAUG, the “self-splicing fitness (ln)” value (30 °C) is reported as -1.15 ± 0.075 and the “self-splicing fitness (ln)” value (37 °C) is reported as -0.0569 ± 0.11.

With UUAAAGCAAUAUUACGUAGC the “self-splicing fitness (ln)” value (30 °C) was -4.43 ± 0.3 and the “self-splicing fitness (ln)” value (37 °C) was -2.96 ± 0.48.

For GCGAAGCAAUAUUACGGUAA, the “self-splicing fitness (ln)” value (30 °C) was -2.4 ± 0.15 and the “self-splicing fitness (ln)” value (37 °C) was -1.65 ± 0.12.

For UUAAAGCAAUAUUACGUCCA, the “self-splicing fitness (ln)” value (30 °C) was -0.0955 ± 0.086 and the “self-splicing fitness (ln)” value (37 °C) was 0.343 ± 0.11.

In the case of CACAAGCAAUAUUACGCUCA, the “self-splicing fitness (ln)” value (30 °C) is reported as -1.45 ± 0.093 and the “self-splicing fitness (ln)” value (37 °C) is reported as -0.209 ± 0.097.

For UUCGAGCAAUAUUACGGCGA, the “self-splicing fitness (ln)” value (30 °C) was -2.23 ± 0.17 and the “self-splicing fitness (ln)” value (37 °C) was -0.638 ± 0.18.

In the case of UGAGAGCAAUAUUACGUCCA, the “self-splicing fitness (ln)” value (30 °C) is reported as -1.04 ± 0.14 and the “self-splicing fitness (ln)” value (37 °C) is reported as -0.218 ± 0.17.

For GGAUAGCAAUAUUACGAGCA, the “self-splicing fitness (ln)” value (30 °C) was -1.26 ± 0.26 and the “self-splicing fitness (ln)” value (37 °C) was -1.05 ± 0.14.

In the case of UCACAGCAAUAUUACGCGAG, the “self-splicing fitness (ln)” value (30 °C) is reported as -1.32 ± 0.063 and the “self-splicing fitness (ln)” value (37 °C) is reported as -0.0838 ± 0.077.

With CACGAGCAAUAUUACGAACC the “self-splicing fitness (ln)” value (37 °C) was -1.7 ± 0.32.

With UAGGAGCAAUAUUACGCGGC the “self-splicing fitness (ln)” value (30 °C) was -2.42 ± 0.39.

For UAGAAGCAAUAUUACGAGCA, the “self-splicing fitness (ln)” value (30 °C) was -1.27 ± 0.096 and the “self-splicing fitness (ln)” value (37 °C) was 0.167 ± 0.1.

In the case of CAUCAGCAAUAUUACGAACA, the “self-splicing fitness (ln)” value (30 °C) is reported as -2.82 ± 0.25 and the “self-splicing fitness (ln)” value (37 °C) is reported as -1.85 ± 0.21.

For UUUCAGCAAUAUUACGUGGU, the “self-splicing fitness (ln)” value (30 °C) was -3.84 ± 0.2 and the “self-splicing fitness (ln)” value (37 °C) was -3.02 ± 0.21.

For AGAGAGCAAUAUUACGGUAU, the “self-splicing fitness (ln)” value (30 °C) was -3.91 ± 0.37 and the “self-splicing fitness (ln)” value (37 °C) was -3.55 ± 0.29.

In the case of AUGUAGCAAUAUUACGGUCC, the “self-splicing fitness (ln)” value (30 °C) is reported as -1.32 ± 0.1 and the “self-splicing fitness (ln)” value (37 °C) is reported as 0.341 ± 0.12.

In the case of CAGAAGCAAUAUUACGGAUU, the “self-splicing fitness (ln)” value (30 °C) is reported as -3.13 ± 0.12 and the “self-splicing fitness (ln)” value (37 °C) is reported as -2.47 ± 0.14.

For UAACAGCAAUAUUACGCACC, the “self-splicing fitness (ln)” value (30 °C) was -2.33 ± 0.29 and the “self-splicing fitness (ln)” value (37 °C) was -1.88 ± 0.43.

For GGCAAGCAAUAUUACGUCCU, the “self-splicing fitness (ln)” value (30 °C) was -1.39 ± 0.088 and the “self-splicing fitness (ln)” value (37 °C) was -1.54 ± 0.11.

With CUAUAGCAAUAUUACGAACG the “self-splicing fitness (ln)” value (30 °C) was 0.0017 ± 0.29 and the “self-splicing fitness (ln)” value (37 °C) was -0.388 ± 0.33.

In the case of ACUGAGCAAUAUUACGCCUG, the “self-splicing fitness (ln)” value (30 °C) is reported as -2.36 ± 0.19 and the “self-splicing fitness (ln)” value (37 °C) is reported as -1.48 ± 0.19.

For UAUUAGCAAUAUUACGACUA, the “self-splicing fitness (ln)” value (30 °C) was -0.146 ± 0.096 and the “self-splicing fitness (ln)” value (37 °C) was 0.46 ± 0.11.

With UCGUAGCAAUAUUACGCUGU the “self-splicing fitness (ln)” value (37 °C) was -1.67 ± 0.28.

With CUACAGCAAUAUUACGAGUG the “self-splicing fitness (ln)” value (30 °C) was -0.714 ± 0.047 and the “self-splicing fitness (ln)” value (37 °C) was -0.418 ± 0.068.

For GAAGAGCAAUAUUACGGGGC, the “self-splicing fitness (ln)” value (30 °C) was -3.46 ± 0.28 and the “self-splicing fitness (ln)” value (37 °C) was -2.28 ± 0.26.

For UGGGAGCAAUAUUACGAGCU, the “self-splicing fitness (ln)” value (30 °C) was -3.52 ± 0.37 and the “self-splicing fitness (ln)” value (37 °C) was -1.69 ± 0.25.

For GACUAGCAAUAUUACGAACG, the “self-splicing fitness (ln)” value (30 °C) was -1.34 ± 0.11 and the “self-splicing fitness (ln)” value (37 °C) was -0.144 ± 0.15.

For CCGAAGCAAUAUUACGCGUA, the “self-splicing fitness (ln)” value (30 °C) was -3.7 ± 0.23 and the “self-splicing fitness (ln)” value (37 °C) was -2.84 ± 0.2.

For ACGCAGCAAUAUUACGUUGU, the “self-splicing fitness (ln)” value (30 °C) was -3.57 ± 0.13 and the “self-splicing fitness (ln)” value (37 °C) was -2.84 ± 0.12.

In the case of CACGAGCAAUAUUACGGCGC, the “self-splicing fitness (ln)” value (37 °C) is reported as -1.73 ± 0.4.

In the case of CGGCAGCAAUAUUACGGAUU, the “self-splicing fitness (ln)” value (30 °C) is reported as -3.9 ± 0.31 and the “self-splicing fitness (ln)” value (37 °C) is reported as -2.24 ± 0.21.

In the case of GUGAAGCAAUAUUACGUUUC, the “self-splicing fitness (ln)” value (30 °C) is reported as -3.08 ± 0.17 and the “self-splicing fitness (ln)” value (37 °C) is reported as -2.53 ± 0.34.

For GGAUAGCAAUAUUACGAAGC, the “self-splicing fitness (ln)” value (30 °C) was -2.6 ± 0.48.

With CAUCAGCAAUAUUACGAGUC the “self-splicing fitness (ln)” value (30 °C) was -4.85 ± 0.34 and the “self-splicing fitness (ln)” value (37 °C) was -1.6 ± 0.21.

In the case of GCGCAGCAAUAUUACGGCUU, the “self-splicing fitness (ln)” value (30 °C) is reported as 0.000989 ± 0.11 and the “self-splicing fitness (ln)” value (37 °C) is reported as 0.531 ± 0.15.
